Measurements: patent US20200181195A1 (NEC, published 2020)

B1: GQDVTSVPV (Seq. ID No. 11) (peptide)
peptide: GQDVTSVPV
notes: Only the start position in MUC1 is printed; The end of the range follows from the length of 9 residues
B2: SVPVTRPAL (Seq. ID No. 2) (peptide)
peptide: SVPVTRPAL
notes: as for B1
B3: GVPGWGIAL (Seq. ID No. 3) (peptide)
peptide: GVPGWGIAL
notes: as for B1
B4: HHSDTPTTL (Seq. ID No. 7) (peptide)
peptide: HHSDTPTTL
notes: as for B1
B5: TLAFREGTI (Seq. ID No. 9) (peptide)
peptide: TLAFREGTI
notes: as for B1
B6: FSAQSGAGV (Seq. ID No. 12) (peptide)
peptide: FSAQSGAGV
notes: as for B1
B7: STGVSFFFL (Seq. ID No. 10) (peptide)
peptide: STGVSFFFL
notes: as for B1
B8: AASRYNLTI (Seq. ID No. 5) (peptide)
peptide: AASRYNLTI
notes: as for B1
B9: FLGLSNIKF (Seq. ID No. 1) (peptide)
peptide: FLGLSNIKF
notes: as for B1
B10: AFREGTINV (Seq. ID No. 4) (peptide)
peptide: AFREGTINV
notes: as for B1
B11: LQRDISEMF (Seq. ID No. 6) (peptide)
peptide: LQRDISEMF
notes: as for B1
B12: SFFFLSFHI (Seq. ID No. 8) (peptide)
peptide: SFFFLSFHI
notes: as for B1

Legend:
[1] = target: T1, HLA-A*02:06 molecule (HLA-A*02:06 gene product) (human); test: flow cytometry, RA2.6 cells (RMAS + HLA-A*02:06), peptide dilution series, BB7.2 staining
T1 construct: whole, on cells; MHC class I on RA2.6 cells (mouse RMAS transfected with HLA-A*02:06); The light chain is not described
Procedure: Thereafter, the cells were cultured at 35° C. for 4 hours. […] A fluorescently labeled monoclonal antibody BB7.2, which specifically recognizes a peptide-binding HLA-A*02:06 molecule, was added thereto, incubation was carried out on ice for 20 minutes, and thus the cells were stained.
(§1) Thereafter, the amount of fluorescence per cell was measured using a flow cytometer, and a dissociation constant Kd value was calculated using a method that was reported in a paper (Udaka et al., Immunogenetics, 51, 816-828, 2000) by the inventors of the present invention.

[2] = target: T2, HLA-A*02:01 molecule (HLA-A*02:01 gene product) (human); test: flow cytometry, T2 cells + purified b2m, peptide dilution series, BB7.2 staining
T2 construct: MHC class I on T2 cells with added purified b2m
Procedure: as §1

[3] = target: T3, HLA-A*24:02 molecule (HLA-A*24:02 gene product) (human); test: flow cytometry, acid-stripped C1R-A24 cells + purified b2m, peptide dilution series, 17A12 staining
T3 construct: MHC class I on acid-stripped C1R-A24 cells; The endogenous peptide and b2m were removed, then purified b2m was added
Procedure: First, C1R-A24 cells were exposed to acidic conditions at a pH of 3.3 for 30 seconds, and thus an endogenous peptide that originally binds to the HLA-A*24:02 molecule, and a light chain β2m, which is associated with HLA class-I molecules in common, were dissociated and removed. After neutralization, a purified β2m was added to C1R-A24 cells, and the obtained product was added to a series of dilutions of the peptide and incubated on ice for 4 hours. Staining was carried out using a fluorescently labeled monoclonal antibody 17A12, which recognizes association (MHC-pep) of the three members, that is, a HLA-A*24:02 molecule, a peptide, and β2m, which had reassociated during the incubation.
Thereafter, the MHC-pep count per C1R-A24 cell (proportional to the intensity of fluorescence of the above-mentioned fluorescent antibody) was quantitatively measured using a fluorescence-activated cell sorter FACScan (Becton-Dickinson). A binding-dissociation constant Kd value between the HLA-A*24:02 molecule and the peptide was calculated from the average intensity of fluorescence per cell using a method that was reported in a paper (Udaka et al., Immunogenetics, 51, 816-828, 2000) by the inventors of the present invention.

Binder	Data of binding experiment (log Kd) [1] [log Kd]	Data of binding experiment (log Kd) [2] [log Kd]	Data of binding experiment (log Kd) [3] [log Kd]
B1	-6.35	-6.44	–
B2	-5.63	-3.9	-7.24
B3	-5.76	-4.55	-5.93
B4	–	–	-5.87
B5	-3.09	–	-5.97
B6	-5.66	-4.74	–
B7	-5.21	-5.12	-5.17
B8	-3.82	-4.81	-6.15
B9	-4.39	-5.39	-7.07
B10	–	–	-5.83
B11	-4.26	–	-6.65
B12	-3.98	–	-7.07
